Holding throughout (assay): purified protein
What all share (assay type): biochemical, Citrobacter gillenii
Holding throughout (conditions): 1 mM ATP, 1 mM MgCl2, 2 mM KCl, 100 mM HEPES pH 7.0, 25 °C

Series [1] has as its system NC[C@H]1O[C@H](O[C@H]2[C@H](O[C@@H]3O[C@H](CO)[C@@H](O)[C@H]3O)[C@@H](O)[C@H](N)C[C@@H]2N)[C@H](N)[C@@H](O)[C@@H]1O.
The subject of series [2] is NC[C@@H]1O[C@H](O[C@H]2[C@@H](O)[C@H](O[C@@H]3[C@@H](O)[C@H](N)C[C@H](N)[C@H]3O[C@H]3O[C@H](CO)[C@@H](O)[C@H](O)[C@H]3N)O[C@@H]2CO)[C@H](N)[C@@H](O)[C@@H]1O.
Series [3] has as its system NC[C@H]1O[C@H](O[C@H]2[C@H](O)[C@@H](O[C@H]3O[C@H](CO)[C@@H](O)[C@H](N)[C@H]3O)[C@H](N)C[C@@H]2N)[C@H](O)[C@@H](O)[C@@H]1O.

These results are taken from publication PMC11320999, “APH(3’)-Ie, an aminoglycoside-modifying enzyme discovered in a rabbit-derived Citrobacter gillenii isolate” (Frontiers in Cellular and Infection Microbiology, 2024).

Regarding APH(3’)-Ie (Citrobacter gillenii), in series [1], the Km (as a rule, the substrate concentration at which the rate is half of its maximum) was 4.22 ± 0.88 µM; the catalytic constant (kcat) – broadly, the number of substrate molecules converted per active site and unit of time at saturation – came out at 1.31 ± 0.09 s⁻¹; the specificity constant (kcat/Km) (usually the turnover number divided by the Michaelis constant) turned out to be 323000 ± 81000 M⁻¹ s⁻¹. Also, in series [2], the Michaelis constant (Km) stood at 7.74 ± 1.44 µM, the kcat is 0.86 ± 0.01 s⁻¹ and the catalytic efficiency (kcat/Km) is 114000 ± 28000 M⁻¹ s⁻¹. For the same substance, in series [3], the Km amounted to 20.99 ± 1.84 µM, the kcat is 1.06 ± 0.05 s⁻¹ and the catalytic efficiency (kcat/Km) was determined as 50800 ± 4400 M⁻¹ s⁻¹.
